Measured values from the DeepSol protein solubility set.

Test: soluble on expression in E. coli; label from the status in PepcDB or PDB records

Sequence	soluble on expression in E. coli
MSLKITADEALTLSKSNGSDIFLLCSFANKLREKFNGNHVDLCSVINAKSGNCSEDCAFCAQSAHHKANVSCYPLLNEDKILEMAKQREAYGARHCDIATSGLGYTGDEKDFQTILKAFKKMKENTNLKLCACLGTLTEKAMNSLAAVGVERYNHNLETAKSFYKNIVSTHGYDERIKTINYAKNAKMEVCSGMIVGLGETMEQRIEHALLLRDLNVDAVPVNILNPVKGTKLENAKPLSPMEIIKTFAIIRFILPDKIIRYAGGREKNLRSLQPLGFLSGLNGMLIGNYLTTNGQSVNDDFNMLKDLELEYEGHHHHHH	not soluble
KSPVREPVDNLSPEERDARTVFCMQLAARIRPRDLEDFFSAVGKVRDVRIISDRNSRRSKGIAYVEFCEIQSVPLAIGLTGQRLLGVPIIVQASQAEKNRL	soluble
MNHLKEVYIDIRDEIFDALDAASLVDVEPLELESQLKDSVNILIEKKQLQISSLKRLDLVKALLDELKGLGPLQALVDNDDISDIMINGPSDIFIEINGKVEKSPIQFVNEKQLNTIAKRIASNVGRRIDESKPLCDARLEDGSR	not soluble
DITVYNGQHKEAAQAVADAFTRATGIKVKLNSAKGDQLAGQIKEEGSRSPADVFYSEQIPALATLSAANLLEPLPASTINETRGKGVPVAAKKDWVALSGRSRVVVYDTRKLSEKDLEKSVLNYATPKWKNRIGYVPTSGAFLEQIVAIVKLKGEAAALKWLKGLKEYGKPYAKNSVALQAVENGEVDAALINNYYWHAFAREKGVQNVHTRLNFVRHRDPGALVTYSGAAVLKSSQNKDEAKKFVAFLAGKEGQRALTAVRAEYPLNPHVVSTFNLEPIAKLEAPQVSATTVSEKEHATRLLEQAGMK	soluble
SEPIYEEYLANHGTIVKPYYWLSFSLDCSNCPYHIRTGEEARVSLTEFCQIFGFPYGTTFPQTKHLTFYELKTSSGSLVQKGHASSCTGNYIHPESMLFEMNGYLDSAIYNNDSIRHIILYSNNSPCNEANHCCISKMYNFLITYPGITLSIYFSQLYHTEMDFPASAWNREALRSLASLWPRVVLSPISGGIWHSVLHSFISGVSGSHVFQPILTGRALADRHNAYEINAITGVKPYFTDVLLQTKRNPNTKAQEALESYPLNNAFPGQFFQMPSGQLQPNLPPDLRAPVVFVLVPLRDLPPMHMGQNPNKPRNIVRHLNMPQMSFQETKDLGRLPTGRSVEIVEITEQFASSKEADEKKKKKGKK	soluble
MAHHHHHHMIVDSAVTERVVLQQQQELDAAERRCAAAEQRLEVELQKTFWRFLTTSAPDAVAAANRKQQSLGWANGGDGAGADSSLYRAEVDVSRFAEVRKAASPNPHRCNTAVAPFSPVRLVPVRTIKLSNEVGDASAAAAASRTQSPSKRSQDSALQPIVLDISPVSALSRCLGCCSGTQLGAIASSVSSAAEEHLLRLAHTRHSVLLFIGSESAAMDVMQSCKAPELLLGAGHSCRDRFQPLANHPVLRVLFTTRLWGANVVLLWNPAQDAALAVAAQAVVEDALELAYAWDADMFSVAVLEGARLPSYAGAGGVSAVATGASSTSAAFFASQAVSMEVLRQLRNSVTRELLDTAGMRRARRWQGTATWMQQGIGSAAAATTGTHMCPRAVGVLYVSQSAQQEQENQLQHQEVSCTASSIRSNAASPLRGDNSIVSVMSSSFLFSPTSPASAFRGPCITFNTPLAIRAFLPLAEEYFIREQPSLVRGSSRGGGDGHHGVSEAASSSTLNQEGGGARGLLRRTASATATEDDDASFSSEKDARFSPASLSATSAPASSPAIDAIRASGSGGEAGLRRQPEMTLESLIQYAFGDLAEIL	not soluble
MPESYWEKVSGKNIPSSLDLYPIIHNYLQEDDEILDIGCGSGKISLELASLGYSVTGIDINSEAIRLAETAARSPGLNQKTGGKAEFKVENASSLSFHDSSFDFAVMQAFLTSVPDPKERSRIIKEVFRVLKPGAYLYLVEFGQNWHLKLYRKRYLHDFPITKEEGSFLARDPETGETEFIAHHFTEKELVFLLTDCRFEIDYFRVKELETRTGNKILGFVIIAQKLLEHHHHHH	soluble
MTLVGECLSPHVTMAQRDHIRLEWRMPYRVLERTRQVAWTCFCRASVYELCEGGGQAFLRRTVQLDGKPTAHETSPCSISEARVIWTALLSGRAR	not soluble
PRVVFIDEQSGEYAVDAQDGQSLMEVATQNGVPGIVAECGGSCVCATCRIEIEDAWVEIVGEANPDENDLLQSTGEPMTAGTRLSCQVFIDPSMDGLIVRVPLPA	soluble
MELSPAERQLLLAHRLAVFDGCVVYDAQPPVSAEHVQRLAEGLAGPIPEDLLRLWRTCFGGRLGYDLEVDYDGHRHPFSFSELFYPDSDGYHDLWGWIEHERELAAEAAAEEGRDWNGKLAYLPFGGFEYLERLYVCVEPGPEHGAVIAWSHGLPPAWAGRLHQDSVTRLADDVGGLFRLLSFEQDPFDAENACGVADELLEALDALEAAGEPGKALKGRLEVLLRQRILDWRPALADGSLAAEPRLRQLALAEAAQDGDIDLLQRLRDAGCDFAETLRGRGGVLEACLARGRLEAARWLLDQGVAVHQDSLQIGAAHLDAVLAERLLRLGAISDPNTVLLALQYGDADAARIMARPLLEESPARANALRLALASRAERERSDARRVRSGKMGSNRSPDDYLALAERLERFLAELPG	not soluble
MGKEKVHINIVVIGHVDSGKSTTTGHLIYKCGGIDKRTIEKFEKEAQEMGKGSFKYAWVLDKLKAERERGITIDIALWKFETAKYYITIIDAPGHRDFIKNMITGTSQADCAVLVVACGTGEFEAGISKNGQTREHALLAQTLGVKQLIVACNKMDSTEPPFSEARFTEITNEVSGFIKKIGYNPKAVPFVPISGFNGDNMLEVSSNMPWFKGWAVERKEGNASGKTLLEALDSIIPPQRPTDRPLRLPLQDVYKIGGIGTVPVGRVETGIIKPGMVVTFAPQNVTTEVKSVEMHHESLPEAVPGDNVGFNVKNVSVKDIRRGSVCSDSKQDPAKEARTFHAQVIIMNHPGQISNGYTPVLDCHTAHIACKFNELKEKVDRRTGKKVEDFPKFLKSGDAGIVELIPTKPLCVESFTDYAPLGRFAVRDMRQTVAVGVIKSVEKSDGSSGKVTKSAQKAAPKKK	not soluble
MADNINESEIIERLNSAPSVRGFFIATVDVFNESIDGLIQRIFRKDNFAVQSVVGPLLQDSGPLGDLSVRLKLLFGLGVLPDDIYHDIEDIIKLKNHLNSDASDYEFTDPNILEPIKKLHLVKKMGMVQLEVNEPDDDIDLEFYQLQLQRQQQIIKSGLSLAIVEICNELGKDSPF	not soluble
MSAPLKHPNAVVLQPPTVTISPLIRFGRYAALSLGVVYGFFRLRQIREYHADIREWDHEKAVAAAEEAAKKKKWLAKDEMRYLMQVVNIPFEEGVKQFGVADLYKED	not soluble
MSLYYVTEDDVDKNFDMKAAINAVREAFEEYGKGRAYSSTRVRTFSQDGVLNTMPAAMEKYHISGLKSYYATRNGAKFVVVLFDTAADELLAIIEANRLGQIRTGAVTAYATSILHKNVEIFAIIGSGFQAETQLEGMLKVANPTEIRVYSRNQEHARNFSERSSKKFGVSIRAVESAEAALIGADTITTITNSNVPIVYRKYLGDEYHINLAGSNYINRREAESAVLSDANIVVTEHLEQSLIESVEISEYVKLGGKPIELKDVAVDPTRYSKFHRTVFKSMGIGLEDIISGYAVLKNMGIIEGHHHHHH	soluble
MSQPRTVTVLGATGSIGHSTLDLIERNLDRYQVIALTANRNVKDLADAAKRTNAKRAVIADPSLYNDLKEALAGSSVEAAAGADALVEAAMMGADWTMAAIIGCAGLKATLAAIRKGKTVALANKESLVSAGGLMIDAVREHGTTLLPVDSEHNAIFQCFPHHNRDYVRRIIITASGGPFRTTSLAEMATVTPERAVQHPNWSMGAKISIDSATMMNKGLELIEAFHLFQIPLEKFEILVHPQSVIHSMVEYLDGSILAQIGSPDMRTPIGHTLAWPKRMETPAESLDFTKLRQMDFEAPDYERFPALTLAMESIKSGGARPAVMNAANEIAVAAFLDKKIGFLDIAKIVEKTLDHYTPATPSSLEDVFAIDNEARIQAAALMESLPA	soluble
GSVLEPLKVVWAKCSGYPSYPALIIDPKMPRVPGHHNGVTIPAPPLDVLKIGEHMQTKSDEKLFLVLFFDNKRSWQWLPKSKMVPLGIDETIDKLKMMEGRNSSIRKAVRIAFDRAMNHLSRVHGE	soluble
MAEHDFETISSETLHTGAIFALRRDQVRMPGGGIVTREVVEHFGAVAIVAMDDNGNIPMVYQYRHTYGRRLWELPAGLLDVAGEPPHLTAARELREEVGLQASTWQVLVDLDTAPGFSDESVRVYLATGLREVGRPEAHHEEADMTMGWYPIAEAARRVLRGEIVNSIAIAGVLAVHAVTTGFAQPRPLDTEWIDRPTAFAARRAER	soluble
AARSECKRSHKFVPGAWLAGEGVDVTSLRRSGSFPVDTQRFLRPDGTCTLCENALQEGTLQRLPLALTNWRAQGSGCQRHVTRAKVSSTEAVARDAARSIRNDWKVGLDVTPKPTSNVHVSVAGSHSQAANFAAQKTHQDQYSFSTDTVECRFYSFHVVHTPPLHPDFKRALGDLPHHFNASTQPAYLRLISNYGTHFIRAVELGGRISALTALRTCELALEGLTDNEVEDCLTVEAQVNIGIHGSISAEAKACEEKKKKHKMTASFHQTYRERHSEVVGGHHTSINDLLFGIQAGPEQYSAWVNSLPGSPGLVDYTLEPLHVLLDSQDPRREALRRALSQYLTDRARWRDCSRPCPPGRQKSPRDPCQCVCHGSAVTTQDCCPRQRGLAQLEVTFIQAWGLWGDWFTATDAYVKLFFGGQELRTSTVWDNNNPIWSVRLDFGDVLLATGGPLRLQVWDQDSGRDDDLLGTCDQAPKSGSHEVRCNLNHGHLKFRYHARCLPHLGGGTCLDYVPQMLLGEPPGNRSGAVW	soluble
MVKAQLQKLIEQVATEHDLPERVVERALKNAIITAIRKEKKIRDELEVEFTDEGIKVYVVRRKGNKKFKFPLDISPEDLNRLAAYAAKEEFYKELERAEQERGYLEFKELEGEIVYGIVRKVLENGDVIVDLGRIDAILPKREQLPTDNFKTGDKVKALLLEVRKRRGEPVLILSRTHPNFLRKLLEQEVPEIKEGLVEIKAVARIPGERAKVAVEAKEMKMDPVGIVVGLKGMRIQKVSEELGGEKIDVIRWSDDIAELIKRALAPAHPEKIKLFPYEKRAEVAVPEEELSLAIGKKGINVKLASKLTGWHIDVLSTKDFEKLEELRKKEDEGQTS	soluble
MIQLGGYKPRLSLHNSLFRALVSKQGGILNDQLKQAEFIFHNVVTTGLEVQKDIYSGLIWLHSCQDEVDIGRINSLREEMKKAGFQESKEVVVSLLRAYAKEGGVEEVERTWLELLDLDCGIPSQAFVYKIEAYSKVGDFAKAMEIFREMEKHIGGATMSGYHKIIEVLCKVQQVELVETLMKEFEESGKKPLLPSFIEIAKMYFDLGLHEKLEMAFVQCLEKCQPSQPIYNIYLDSLTKIGNLEKAGDVFNEMKNNGTINVSARSCNSLLKGYLDCGKQVQAERIYDLMRMKKYEIEPPLMEKLDYILSLKKKEVKKRPFSMKLSKDQREVLVGLLLGGLQIESDKEKKSHMIKFEFRENSQAHLVLKQNIHDQFREWLHPLSNFQEDIIPFEFYSVPHSYFGFYAEHYWPKGQPEIPKLIHRWLSPHSLAYWYMYSGVKTSSGDIILRLKGSLEGVEKVVKALQAKSMECRVKKKGKVFWIGLQGTNSALFWKLIEPHVLENLKEHLKPASESLDNVKEAEEQSINFKSNSDHSDDCVNSEAHFY	not soluble
SNAMLRYGDTEICIDPSESVLHLLGKKYTMLIISVLGNGSTRQNFNDIRSSIPGISSTILSRRIKDLIDSGLVERRSGQITTYALTEKGMNVRNSLMPLLQYISVLDRNGD	soluble
